Source: patent US20070014803A1 (ARBOR VITA, published 2007)

What was measured:
HIV-1 Peptide 1905 [1] = molecular target: T1, HIV-1 Peptide 1905 (HIV-1); test: modified G assay ELISA, third experiment (text prints 'FIG. 3C' a second time, read as FIG. 5C)
T1 construct: also called HIV peptide 1905

HIV-1 Peptide 1904 [2] = molecular target: T2, HIV-1 Peptide 1904 (HIV-1); test: G assay ELISA (FIG. 1C): GST-PDZ on anti-GST plate, biotinylated peptide titrated, streptavidin-HRP
T2 construct: also called HIV peptide 1904

HIV-1 Peptide 1904 [3] = molecular target: T2, HIV-1 Peptide 1904; test: modified G assay ELISA (FIG. 2C): peptide pre-incubated with streptavidin-HRP, titrated on GST-PDZ plate
HIV-1 Peptide 1905 [4] = molecular target: T1, HIV-1 Peptide 1905; test: modified G assay ELISA (FIG. 3C): peptide pre-incubated with streptavidin-HRP, titrated on GST-PDZ plate
HIV-1 Peptide 1905 [5] = molecular target: T1, HIV-1 Peptide 1905; test: G assay ELISA (FIG. 4C): GST-PDZ on anti-GST plate, biotinylated peptide titrated, streptavidin-HRP
HIV-1 Peptide 1904 [6] = molecular target: T2, HIV-1 Peptide 1904; test: MATRIX screen of GST-PDZ array, modified G assay ELISA; 'Intensity of Hit'
Experimental: (§1) The primary MATRIX screen against all PDZ proteins in the library was performed under pre-incubation conditions, which are a modification of the G assay. A pre-incubation assay incubates the peptide with the HRP-streptavidin before addition of the mixture to the PDZ-coated plate. The subsequent titrations of the peptide against the PDZs of interest were performed under normal ELISA G assay conditions. In normal conditions the peptide is incubated on the PDZ coated plate before the later addition of the HRP-streptavidin.
(§2) Prepare peptides in half of volume need with double of desired concentration. […] Dilute HRP (1:1000) in another half of volume (same volume with peptide) then mix with peptides. […] Incubate the peptide-HRP mixtures for 20 minutes at RT 8. Wash plate 3× with cold PBS* 9. Add peptide-HRP mixtures at 50 μl per well (write time on plate) 10. […] Turn on plate reader and prepare files 12. Promptly wash plate 5× with room temperature PBS 13. Add 100 μl/well TMB substrate (write time on plate) 14. Incubate in dark at room temp for a maximum of 30 minutes 15. Stop reaction with 100 μl of 0.18M H₂SO₄, 30 min. after adding TMB 16. Take last reading at 450 nm soon after stopping reaction

HIV-1 Peptide 1905 [7] = molecular target: T1, HIV-1 Peptide 1905; test: as above
Experimental: as §1, §2

B1: KIAA0751 RIM2, GST fusion (other)
chain: TLNEEHSHSDKHPVTWQPSKDGDRLIGRILLNKRLKDGSVPRDSGAMLGLKVVGGKMTESGRLCAFITKVKKGSLADTVGHLRPGDEVLEWNGRLLQGATFEEVYNIILESKPEPQVELVVSRPIG
EC50 (HIV-1 Peptide 1905 [1]): 68 nM | EC50 (HIV-1 Peptide 1904 [2]): 410 nM | EC50 (HIV-1 Peptide 1904 [3]): 30 nM | EC50 (HIV-1 Peptide 1905 [4]): 14 nM | EC50 (HIV-1 Peptide 1905 [5]): 182 nM

B2: INADL d3, GST fusion (other)
chain: NVELVRKDGQSLGIRIVGYVGTSHTGEASGIYVKSIIPGSAAYHNGHIQVNDKIVAVDGVNIQGFANHDVVEVLRNAGQVVHLTLVRRK
notes: also called INADL (PDZ #3)
binding result (HIV-1 Peptide 1904 [6]): binds

B3: AIPC d1, GST fusion (other)
chain: LIRPSVISIIGLYKEKGKGLGFSIAGGRDCIRGQMGIFVKTIFPNGSAAEDGRLKEGDEILDVNGIPIKGLTFQEAIHTFKQIRSGLFVLTVRTKLVSPSLTNSS
notes: also called AIPC (PDZ #1)
binding result (HIV-1 Peptide 1904 [6]): binds

B4: KIAA0316, GST fusion (other)
chain: IPPAPRKVEMRRDPVLGFGFVAGSEKPVVVRSVTPGGPSEGKLIPGDQIVMINDEPVSAAPRERVIDLVRSCKESILLTVIQPYPSPKSEFIVTD
binding result (HIV-1 Peptide 1904 [6]): binds

B5: MAGI1 d1, GST fusion (other)
chain: PSELKGKFIHTKLRKSSRGFGFTVVGGDEPDEFLQIKSLVLDGPAALDGKMETGDVIVSVNDTCVLGHTHAQVVKIFQSIPIGASVDLELCRGYPLPFDPDGIHRD
notes: also called MAGI1 (PDZ #1)
binding result (HIV-1 Peptide 1904 [6]): binds

B6: KIAA0807 MAST2, GST fusion (other)
chain: ISALGSMRPPIIIHRAGKKYGFTLRAIRVYMGDSDVYTVHHMVWHVEDGGPASEAGLRQGDLITHVNGEPVHGLVHTEVVELILKSGNKVAISTTPLENSS
binding result (HIV-1 Peptide 1904 [6]): binds | binding result (HIV-1 Peptide 1905 [7]): binds

B7: KIAA1284, GST fusion (other)
chain: KDVNVYVNPKKLTVIKAKEQLKLLEVLVGIIHQTKWSWRRTGKQGDGERLVVHGLLPGGSAMKSGQVLIGDVLVAVNDVDVTTENIERVLSCIPGPMQVKLTFENAYDVKRET
binding result (HIV-1 Peptide 1904 [6]): binds | binding result (HIV-1 Peptide 1905 [7]): binds

B8: EZRIN Binding Protein 50 PDZ #1, GST fusion (other)
chain: LCCLEKGPNGYGFHLHGEKGKLGQYIRLVEPGSPAEKAGLLAGDRLVEVNGENVEKETHQQVVSRIRAALNAVRLLVVDPE
notes: also called EBP50 d1; EBP50 (PDZ #1)
binding result (HIV-1 Peptide 1905 [7]): binds

B9: PICK1 F.L., GST fusion (other)
chain: MFADLDYDIEEDKLGIPTVPGKVTLQKDAQNLIGISIGGGAQYCPCLYIVQVFDNTPAALDGTVAAGDEITGVNGRSIKGKTKVEVAKMIQEVKGEVTIHYNKLQADPKQGMSLDIVLKKVKHRLVENMSSGTADALGLSRAILCNDGLVKRLEELERTAELYKGMTEHTKNLLRAFYELSQTHRAFGDVFSVIGVREPQPAASEAFVKFADAHRSIEKFGIRLLKTIKPMLTDLNTYLNKAIPDTRLTIKKYLDVKFEYLSYCLKVKEMDDEEYSCIALGEPLYRVSTGNYEYRLILRCRQEARARFSQMRKDVLEKMELLDQKHVQDIVFQLQRLVSTMSKYYNDCYAVLRDADVFPIEVDLAHTTLAYGLNQEEFTDGEEEEEEEDTAAGEPSRDTRGAAGPLDKGGSWCDS
binding result (HIV-1 Peptide 1905 [7]): binds
